Where two headings read alike, the source gives them in different places.
Experiments:
[1] = biological target: T1, human C-KIT, full length, on cells (human, UniProt P10721 26-976); assay: cell-based or functional assay
[2] = biological target: T2, cynomolgus monkey C-KIT-Fc (cynomolgus monkey); assay: HTRF epitope competition in solution; competitor IgG1-3M titrated against terbium-labelled h37M IgG1 on cyno C-KIT-Fc
T2 construct: also called cyno C-KIT-Fc

human C-KIT-Fc [3] = biological target: T3, human C-KIT-Fc (human, UniProt P10721 26-524); assay: HTRF epitope competition in solution; competitor IgG1-3M titrated against terbium-labelled h37M IgG1 on biotinylated human C-KIT-Fc
T3 construct: also called biotinylated human C-KIT-Fc; not shown: Fc part not described

[4] = biological target: T1, human C-KIT, full length, on cells; assay: cell-based or functional assay; remark: listed apart in the source
[5] = biological target: cynomolgus monkey C-KIT, full length, on CHO-K1 cells (cynomolgus monkey); assay: cell-based or functional assay
human C-KIT-Fc [6] = biological target: T3, human C-KIT-Fc; assay: HTRF competition on human C-KIT-Fc against terbium-labelled h37M IgG1
[7] = biological target: T1, human C-KIT, full length, on cells; assay: flow cytometry, C-KIT-transfected CHO-K1 cells, IgG1 format
[8] = biological target: T1, human C-KIT, full length, on cells; assay: as above; remark: listed apart in the source
human C-KIT-Fc [9] = biological target: T3, human C-KIT-Fc; assay: HTRF competition on human C-KIT-Fc against terbium-labelled h37M IgG1; remark: listed apart in the source
human C-KIT-Fc [10] = biological target: T3, human C-KIT-Fc; assay: HTRF epitope competition in solution; unlabelled h37M IgG1-3M titrated against terbium-labelled h37M IgG1 on biotinylated human C-KIT-Fc

IC50 (read off the curve) [2]	IC50 (read off the curve) (human C-KIT-Fc [3])	binding result (human C-KIT-Fc [6])	binding result [7]	Binder	other results
~0.02 µg/mL	~0.01 µg/mL			MH1, IgG1-3M format (antibody, V domains shown, human IgG1 with L234A/L235A/G237A; also called C-KIT-MH1) VH: QVQLVQSGAEVKKPGASVKVSCKASGYTFTDYYMNWVRQAPGQGLEWMGRIYPGSGNTYYAQKFQGRVTMTRDTSTSTVYMELSSLRSEDTAVYYCARGVYYYDYWGQGTLVTVSS VL: DIQMTQSPSSLSASVGDRVTITCRASQGIRTNLAWFQQKPGKAPKSLIYAASSLQSGVPSRFSGSGSGTDFTLTISSLQPEDFATYYCQQYNSYPRTFGGGTKVEIK	TF-1 proliferation, fold less potent than h37M [1]: 26.5 fold; Human C-KIT CHO FabZAP IC50 (pM) [4]: 8.7 pM; TF-1 FabZAP IC50 (pM) [4]: 51.1 pM; TF-1 proliferation IC50 [4]: 2.86 nM; Cyno C-KIT CHO FabZAP IC50 (pM) [5]: 14 pM
~0.02 µg/mL	~0.03 µg/mL			MH5, IgG1-3M format (antibody, V domains shown, human IgG1 with L234A/L235A/G237A) VH: QVQLVQSGAEVKKPGASVKVSCKASGYTFTDYYMNWVRQAPGQGLEWMGRIYPGSGNTYYAQKFQGRVTMTRDTSTSTVYMELSSLRSEDTAVYYCARGVYYYDYWGQGTLVTVSS VL: DIQMTQSPSSLSASVGDRVTITCRASQGIRTNLAWFQQKPGKAPKSLIYSASSLQSGVPSRFSGSGSGTDFTLTISSLQPEDFATYYCQQYANYPRTFGGGTKVEIK	
		binds	binds	MH3 (antibody, IgG1, V domains shown, IgG1) VH: QVQLVQSGAEVKKPGASVKVSCKASGYTFTDYYMNWVRQAPGQGLEWMGRIYPGSGNTYYAQKFQGRVTMTRDTSTSTVYMELSSLRSEDTAVYYCARGVYYYDYWGQGTLVTVSS VL: DIQMTQSPSSLSASVGDRVTITCRASQGIRTNLAWFQQKPGKAPKSLIYSASSLQSGVPSRFSGSGSGTDFTLTISSLQPEDFATYYCQQYNAYPRTFGGGTKVEIK	
				MH7 (antibody, IgG1, V domains shown, IgG1) VH: QVQLVQSGAEVKKPGASVKVSCKASGYTFTDYYMNWVRQAPGQGLEWMGRIYPGSGNTYYAQKFQGRVTMTRDTSTSTVYMELSSLRSEDTAVYYCARGVYYYDYWGQGTLVTVSS VL: DIQMTQSPSSLSASVGDRVTITCRASQGIRTNLAWFQQKPGKAPKSLIYSASSLQSGVPSRFSGSGSGTDFTLTISSLQPEDFATYYCQQYNSYPHTFGGGTKVEIK	binding result [8]: binds; binding result (human C-KIT-Fc [9]): binds
		binds	binds	MH2 (antibody, IgG1, V domains shown, IgG1) VH: QVQLVQSGAEVKKPGASVKVSCKASGYTFTDYYMNWVRQAPGQGLEWMGRIYPGSGNTYYAQKFQGRVTMTRDTSTSTVYMELSSLRSEDTAVYYCARGVYYYDYWGQGTLVTVSS VL: DIQMTQSPSSLSASVGDRVTITCRASQGIRTNLAWFQQKPGKAPKSLIYSASSLQSGVPSRFSGSGSGTDFTLTISSLQPEDFATYYCQQYASYPRTFGGGTKVEIK	
				h37M-IgG1-3M (antibody, V domains shown, human IgG1 with L234A/L235A/G237A; also called C-KIT-h37M) VH: QVQLVQSGAEVKKPGASVKLSCKASGYTFTDYYINWVRQAPGKGLEWIARIYPGSGNTYYNEKFKGRATLTADKSTSTAYMQLSSLRSEDTAVYFCARGVYYFDYWGQGTTVTVSS VL: DIVMTQSPSSLSASVGDRVTITCKASQNVRTNVAWYQQKPGKAPKALIYSASYRYSGVPDRFTGSGSGTDFTLTISSLQPEDFADYFCQQYNSYPRTFGGGTKVEIK	IC50 (read off the curve) (human C-KIT-Fc [10]): ~0.01 µg/mL
